Legend:
[1] = biological target: 食蟹猴CD47 (on overexpressing CHO-K1 cells) (cynomolgus monkey); assay: flow cytometry, control human IgG on CHO-K1 overexpressing cynomolgus CD47 (PBS background 92.8)
[2] = biological target: 人源CD47 (on cells: hCD47-overexpressing CHO-K1; Raji) (human) (UniProt Q08722); assay: flow cytometry, control human IgG on CHO-K1 overexpressing human CD47 (PBS background 139.0)
Sequence of UniProt Q08722 (Q08722 19-323): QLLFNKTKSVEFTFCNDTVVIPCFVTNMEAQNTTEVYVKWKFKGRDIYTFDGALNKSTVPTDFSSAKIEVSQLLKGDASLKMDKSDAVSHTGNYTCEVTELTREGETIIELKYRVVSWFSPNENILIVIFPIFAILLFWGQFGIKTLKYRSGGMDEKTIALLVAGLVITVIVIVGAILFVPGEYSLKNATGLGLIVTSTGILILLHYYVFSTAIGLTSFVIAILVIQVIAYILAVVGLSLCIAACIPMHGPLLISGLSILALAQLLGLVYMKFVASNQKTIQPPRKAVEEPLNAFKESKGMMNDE

human IgG (antibody)
MFI [1]: 71 MFI
MFI [2]: 101 MFI

Source: patent CN116478288A
